Measured values as given in patent US20100009390A1, “MUTANT ANTIBODIES WITH HIGH AFFINITY FOR EGFR” (THE REGENTS OF THE UNIVERSITY OF CALIFORNIA, priority 2008, published 2010).
“Also recorded” adds a separate entry of the source. Where two headings read alike, the source gives them in different places.

Legend:
[1] = molecular target: T1, biotinylated EGFR-ECD (Homo sapiens, UniProt P00533); assay: Yeast-displayed scFv affinity for biotinylated EGFR-ECD by flow cytometry; assay type: binding; details: concentrations as high as 8 μM
T1 construct: Recombinant EGFR-ECD was expressed in HEK293 cells; biotin (chemical label, NHS-sulfo-LC-biotin on amines); made in house; host or cells: HEK293 cells
Procedure: Generally, six to eight different concentrations of biotinylated EGFR were used to span a range of concentrations from ten times above to ten times below the KD. Incubation volumes, times and yeast numbers were chosen to ensure that the studies were done in at least fivefold antigen excess and that equilibrium had been achieved (Razai et al. (2005) J. Mol. Biol. 351: 158-169). For anti-EGFR scFv, […] in 50 μl were incubated with biotinylated EGFR-ECD for 1 h at room temperature. […] Only yeast displaying scFv (as determined by binding of SV5 mAb) were gated for affinity measurements.

[2] = molecular target: T2, MDAMB468 cells expressing EGFR (Homo sapiens, UniProt P00533); assay: Immunoliposome binding affinity for cells expressing EGFR (flow cytometry); details: read-out: Apparent KD of immunoliposomes
T2 construct: Human breast cancer MDAMB468 cells expressing EGFR; endogenous in cells; host or cells: MDAMB468 breast carcinoma cells
Procedure: Human breast cancer MDAMB468 cells expressing EGFR were grown to 80-90% confluence in L15 medium supplemented with 10% FBS and harvested by trypsinization. ILs labeled with DiIC18(3)-DS were incubated overnight with 10^4 cells at concentrations of IL ranging from 0.31-2.5 nM. The concentration of IL was converted from the concentration of phospholipid on the basis of the approximate number of phospholipid molecules per liposome (80,000). Cell binding was performed at 4° C. in FACS buffer in adequate volume to ensure a fivefold excess of ILs and that the reaction had come to equilibrium. After two washes with 200 μl of FACS buffer, the amount of cell-bound ILs was quantified by flow cytometry in a FACS LSRII (Becton Dickinson). Data analysis was the same as for the measurement of scFv KD.

[3] = system: EGFR-over-expressing MDAMB468 cells; assay: Internalization/uptake of anti-EGFR immunoliposomes (microscopy, flow cytometry); assay type: cell-based, Human
Procedure: (§1) scFv-mediated internalization of fluorescent immunoliposomes was analyzed and quantified by microscopy and flow cytometry. C10 scFv fragments were inserted into liposomes at ratios of 5, 10, 15, 30 and 60 μg scFv/μmol phospholipid (Mamot et al. (2003) Cancer Res. 63: 3154-3161). scFv densities of 16, 32, 48, 96 and 192 scFv/liposome were calculated on the basis of the molecular mass of scFv (26 kDa) and the approximate number of phospholipid molecules/liposome (80,000). The conjugation technology for scFv to Mal-PEG-DSPE is remarkably reproducible with an efficiency of 77.3(±3.1) % (range 75-82% over six batches) (Nellis et al. (2005) Biotechnol. Prog. 21: 205-220). […] For microscopy studies, 150,000 cells were incubated with 50 μM PL of untargeted and EGFR-targeted ILs labeled with DiIC18(3)-DS in a 12-well plate for 2 h at 37° C., followed by washing with PBS and further incubation at 37° C. for 2 h. The cells were then analyzed by using an inverted fluorescence microscope (Nikon Eclipse, TE300) with a 540/25 nm band-pass filter for excitation and a long-pass filter at 565 nm for emission. For quantitative uptake of immunoliposomes, 250,000 cells were incubated with EGFR-targeted ILs labeled with ADS645 in a six-well plate for 2 h at 37° C., washed with PBS, removed in trypsin solution and fluorescence quantified with a FACSAria instrument (Beckton Dickinson). To determine the effect of EGF competition on internalization of EGFR-targeted ILs, IL internalization was quantified as described above, except that 50 μM targeted ILs and cells were incubated with EGF concentrations ranging from 0.2-25 nM. ANOVA (analysis of variance) was used to analyze the statistical differences of the quantified uptake.

[4] = system: MDAMB231 cells; assay: Uptake of EGFR immunoliposomes into cells of lower EGFR density; assay type: cell-based, human; details: all scFv densities studied; 480,000 EGFR/cell
Procedure: as §1
To determine the impact of receptor density on IL uptake, we measured the uptake of the different ILs into MDAMB231 cells which express 480,000 EGFR/cell as determined by flow cytometry using Quantum Simply Cellular anti-Human IgG beads (Bangs Laboratories Inc.). […] Uptake into MDAMB231 cells increased with increasing scFv density, reaching a plateau at an IL scFv density of 74 scFv/IL for P2/4 scFv and at 37 scFv/IL for 2224 scFv (FIG. 6C).

[5] = molecular target: T3, A431 cells (Homo sapiens, UniProt P00533); assay: Binding specificity of scFv by flow cytometry; details: A431, 1×10^6-3×10^6 EGFR/cell
T3 construct: endogenous in cells; host or cells: A431 cells

[6] = system: MDAMB468 cells; assay: Binding specificity of scFv by flow cytometry; design: species or system Human; details: MDAMB468, 1×10^6-3×10^6 EGFR/cell
[7] = system: MDAMB453 cells; assay: Binding specificity of scFv by flow cytometry; details: MDAMB453, only 10^4 EGFR/cell
[8] = molecular target: T4, EGFR (vIII) stably transfected NR6M cells (Homo sapiens, UniProt P00533, DELINS30-297G); assay: Binding specificity of scFv by flow cytometry
T4 construct: expressed in transfected cells; host or cells: NR6M cells (NR6 stably transfected with EGFR (vIII)), gift of Dr Daryl D Bigner
Procedure: (§2) The binding of C10 scFv and C10 mutants to EGFR (vIII) stably transfected NR6M cells and parental NR6 cells was also measured.

[9] = system: parental NR6 cells; assay: Binding specificity of scFv by flow cytometry; details: NR6, EGFR negative
Procedure: as §2

[10] = molecular target: T5, EGFR-expressing A431 cells (Homo sapiens, UniProt P00533); details: Heitner et al. (2001); read-out: KD of C10 scFv previously measured on EGFR-expressing tumor cells; cited from earlier work
T5 construct: host or cells: A431 cells

B1: C10: parental (wild-type) internalizing anti-EGFR human scFv from a non-immune phage antibody library; SEQ ID NO:1 (protein)
scFv: EVQLVQSGAEVKKPGSSVKVSCKASGGTFSSYAISWVRQAPGQGLEWMGGIIPIFGTANYAQKFQGRVTITADESTSTAYMELSSLRSEDTAVYYCAREEGPYCSSTSCYGAFDIWGQGTLVTVSS
modifications: Variable chain of single chain antibody.
binding of yeast-displayed scFv to biotinylated recombinant EGFR [1]: minimal binding | Kd ([2]; 74 scFv/liposome): 1.75 nM | Kd ([2]; 148 scFv/liposome): 0.36 nM | endocytosis of ILs by fluorescence microscopy ([3]; 74 scFv/liposome, MDAMB468): endocytosed efficiently | IL uptake compared to ILs from higher affinity scFv ([3]; scFv densities of 74 scFv/liposome or less): less uptake | IL uptake into MDAMB231 cells compared to A431 cells [4]: significantly less uptake | scFv binding/staining of cells [5]: stained | scFv binding/staining of cells [6]: stained | scFv binding/staining of cells [7]: did not stain | scFv binding/staining of cells [8]: strong staining; also recorded: stained | scFv binding/staining of cells [9]: minimal binding; also recorded: did not stain | Kd [10]: 217 nM
